Results on ten molecules are retold here after publication PMC8298264, “Function of cofactor Akirin2 in the regulation of gene expression in model human neutrophil-like HL60 cells” (Bioscience Reports, 2021).

Sequences and labels used below:
B1: sp¦Q9H7B2¦RPF2_HUMAN (protein, UniProt Q9H7B2 1-306, looked up)
Ribosome production factor 2 …: MDTLDRVVKPKTKRAKRFLEKREPKLNENIKNAMLIKGGNANATVTKVLKDVYALKKPYGVLYKKKNITRPFEDQTSLEFFSKKSDCSLFMFGSHNKKRPNNLVIGRMYDYHVLDMIELGIENFVSLKDIKNSKCPEGTKPMLIFAGDDFDVTEDYRRLKSLLIDFFRGPTVSNIRLAGLEYVLHFTALNGKIYFRSYKLLLKKSGCRTPRIELEEMGPSLDLVLRRTHLASDDLYKLSMKMPKALKPKKKKNISHDTFGTTYGRIHMQKQDLSKLQTRKMKGLKKRPAERITEDHEKKSKRIKKN
B2: sp¦Q9NUQ9¦CYRIB_HUMAN (protein, UniProt Q9NUQ9 2-324, looked up)
CYFIP-related Rac1 interactor …: GNLLKVLTCTDLEQGPNFFLDFENAQPTESEKEIYNQVNVVLKDAEGILEDLQSYRGAGHEIREAIQHPADEKLQEKAWGAVVPLVGKLKKFYEFSQRLEAALRGLLGALTSTPYSPTQHLEREQALAKQFAEILHFTLRFDELKMTNPAIQNDFSYYRRTLSRMRINNVPAEGENEVNNELANRMSLFYAEATPMLKTLSDATTKFVSENKNLPIENTTDCLSTMASVCRVMLETPEYRSRFTNEETVSFCLRVMVGVIILYDHVHPVGAFAKTSKIDMKGCIKVLKDQPPNSVEGLLNALRYTTKHLNDETTSKQIKSMLQ
B3: sp¦Q9P035¦HACD3_HUMAN (protein, UniProt Q9P035 1-362, looked up)
Very-long-chain …: MENQVLTPHVYWAQRHRELYLRVELSDVQNPAISITENVLHFKAQGHGAKGDNVYEFHLEFLDLVKPEPVYKLTQRQVNITVQKKVSQWWERLTKQEKRPLFLAPDFDRWLDESDAEMELRAKEEERLNKLRLESEGSPETLTNLRKGYLFMYNLVQFLGFSWIFVNLTVRFCILGKESFYDTFHTVADMMYFCQMLAVVETINAAIGVTTSPVLPSLIQLLGRNFILFIIFGTMEEMQNKAVVFFVFYLWSAIEIFRYSFYMLTCIDMDWKVLTWLRYTLWIPLYPLGCLAEAVSVIQSIPIFNETGRFSFTLPYPVKIKVRFSFFLQIYLIMIFLGLYINFRHLYKQRRRRYGQKKKKIH
B4: sp¦Q7L5N7¦PCAT2_HUMAN (protein, UniProt Q7L5N7 1-544, looked up)
Lysophosphatidylcholine …: MSRCAQAAEVAATVPGAGVGNVGLRPPMVPRQASFFPPPVPNPFVQQTQIGSARRVQIVLLGIILLPIRVLLVALILLLAWPFAAISTVCCPEKLTHPITGWRRKITQTALKFLGRAMFFSMGFIVAVKGKIASPLEAPVFVAAPHSTFFDGIACVVAGLPSMVSRNENAQVPLIGRLLRAVQPVLVSRVDPDSRKNTINEIIKRTTSGGEWPQILVFPEGTCTNRSCLITFKPGAFIPGVPVQPVLLRYPNKLDTVTWTWQGYTFIQLCMLTFCQLFTKVEVEFMPVQVPNDEEKNDPVLFANKVRNLMAEALGIPVTDHTYEDCRLMISAGQLTLPMEAGLVEFTKISRKLKLDWDGVRKHLDEYASIASSSKGGRIGIEEFAKYLKLPVSDVLRQLFALFDRNHDGSIDFREYVIGLAVLCNPSNTEEIIQVAFKLFDVDEDGYITEEEFSTILQASLGVPDLDVSGLFKEIAQGDSISYEEFKSFALKHPEYAKIFTTYLDLQTCHVFSLPKEVQTTPSTASNKVSPEKHEESTSDKKDD
B5: sp¦P11387¦TOP1_HUMAN (protein, UniProt P11387 2-765, looked up)
DNA topoisomerase 1: SGDHLHNDSQIEADFRLNDSHKHKDKHKDREHRHKEHKKEKDREKSKHSNSEHKDSEKKHKEKEKTKHKDGSSEKHKDKHKDRDKEKRKEEKVRASGDAKIKKEKENGFSSPPQIKDEPEDDGYFVPPKEDIKPLKRPRDEDDADYKPKKIKTEDTKKEKKRKLEEEEDGKLKKPKNKDKDKKVPEPDNKKKKPKKEEEQKWKWWEEERYPEGIKWKFLEHKGPVFAPPYEPLPENVKFYYDGKVMKLSPKAEEVATFFAKMLDHEYTTKEIFRKNFFKDWRKEMTNEEKNIITNLSKCDFTQMSQYFKAQTEARKQMSKEEKLKIKEENEKLLKEYGFCIMDNHKERIANFKIEPPGLFRGRGNHPKMGMLKRRIMPEDIIINCSKDAKVPSPPPGHKWKEVRHDNKVTWLVSWTENIQGSIKYIMLNPSSRIKGEKDWQKYETARRLKKCVDKIRNQYREDWKSKEMKVRQRAVALYFIDKLALRAGNEKEEGETADTVGCCSLRVEHINLHPELDGQEYVVEFDFLGKDSIRYYNKVPVEKRVFKNLQLFMENKQPEDDLFDRLNTGILNKHLQDLMEGLTAKVFRTYNASITLQQQLKELTAPDENIPAKILSYNRANRAVAILCNHQRAPPKTFEKSMMNLQTKIDAKKEQLADARRDLKSAKADAKVMKDAKTKKVVESKKKAVQRLEEQLMKLEVQATDREENKQIALGTSKLNYLDPRITVAWCKKWGVPIEKIYNKTQREKFAWAIDMADEDYEF
B6: sp¦P25815¦S100P_HUMAN (protein, UniProt P25815 1-95, looked up)
Protein S100-P: MTELETAMGMIIDVFSRYSGSEGSTQTLTKGELKVLMEKELPGFLQSGKDKDAVDKLLKDLDANGDAQVDFSEFIVFVAAITSACHKYFEKAGLK
B7: sp¦P61020¦RAB5B_HUMAN (protein, UniProt P61020 2-215, looked up)
Ras-related protein Rab-5B: TSRSTARPNGQPQASKICQFKLVLLGESAVGKSSLVLRFVKGQFHEYQESTIGAAFLTQSVCLDDTTVKFEIWDTAGQERYHSLAPMYYRGAQAAIVVYDITNQETFARAKTWVKELQRQASPSIVIALAGNKADLANKRMVEYEEAQAYADDNSLLFMETSAKTAMNVNDLFLAIAKKLPKSEPQNLGGAAGRSRGVDLHEQSQQNKSQCCSN
B8: sp¦P42126¦ECI1_HUMAN (protein, UniProt P42126 42-302, looked up)
Enoyl-CoA delta isomerase 1, …: FGSQRVLVEPDAGAGVAVMKFKNPPVNSLSLEFLTELVISLEKLENDKSFRGVILTSDRPGVFSAGLDLTEMCGRSPAHYAGYWKAVQELWLRLYQSNLVLVSAINGACPAGGCLVALTCDYRILADNPRYCIGLNETQLGIIAPFWLKDTLENTIGHRAAERALQLGLLFPPAEALQVGIVDQVVPEEQVQSTALSAIAQWMAIPDHARQLTKAMMRKATASRLVTQRDADVQNFVSFISKDSIQKSLQMYLERLKEEKG
B9: sp¦P47985¦UCRI_HUMAN (protein, UniProt P47985 79-274, looked up)
Cytochrome b-c1 complex …: SHTDIKVPDFSEYRRLEVLDSTKSSRESSEARKGFSYLVTGVTTVGVAYAAKNAVTQFVSSMSASADVLALAKIEIKLSDIPEGKNMAFKWRGKPLFVRHRTQKEIEQEAAVELSQLRDPQHDLDRVKKPEWVILIGVCTHLGCVPIANAGDFGGYYCPCHGSHYDASGRIRLGPAPLNLEVPTYEFTSDDMVIVG
B10: sp¦Q9NUQ2¦PLCE_HUMAN (protein, UniProt Q9NUQ2 1-364, looked up)
1-acyl-sn-glycerol-3-phosphate …: MLLSLVLHTYSMRYLLPSVVLLGTAPTYVLAWGVWRLLSAFLPARFYQALDDRLYCVYQSMVLFFFENYTGVQILLYGDLPKNKENIIYLANHQSTVDWIVADILAIRQNALGHVRYVLKEGLKWLPLYGCYFAQHGGIYVKRSAKFNEKEMRNKLQSYVDAGTPMYLVIFPEGTRYNPEQTKVLSASQAFAAQRGLAVLKHVLTPRIKATHVAFDCMKNYLDAIYDVTVVYEGKDDGGQRRESPTMTEFLCKECPKIHIHIDRIDKKDVPEEQEHMRRWLHERFEIKDKMLIEFYESPDPERRKRFPGKSVNSKLSIKKTLPSMLILSGLTAGMLMTDAGRKLYVNTWIYGTLLGCLWVTIKA

The subject of the first assay is human HL60 cells. Description: SWATH-MS proteomics, differential protein representation, akirin2 KO vs WT HL60 cells. As to conditions: KO vs WT HL60 cells; sheet "Under-represented in KO". In kind it is cell-based. The gist of the method:
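Differential representation compares akirin2 KO with WT HL60 across three biological replicates, 5 µg digest each, acquired by data-independent SWATH on a 120-min gradient. Library built from combined IDA runs searched with Paragon; proteins accepted at 1% FDR, with total-area-sum normalization.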
For B1, the “Fold Change” value amounted to 0.4816 and the “Log (Fold Change)” value is -0.3173.
For B2, in that order: 0.4847 and -0.3146.
For B3, the “Fold Change” value was 0.4569 and the “Log (Fold Change)” value is -0.3402.
On to B4, for which the “Fold Change” value is listed as 0.4537 and the “Log (Fold Change)” value is given as -0.3432.
Turning to B5, the “Fold Change” value amounted to 0.4613 and the “Log (Fold Change)” value is recorded as -0.336.
In the same order, the values of B6 are 0.4762 and -0.3222.
B7: the “Fold Change” value amounted to 0.4514 and the “Log (Fold Change)” value is listed as -0.3455.
For B8, in that order: 0.4682 and -0.3295.

Still in this assay, the particulars now being: akirin2 KO vs WT HL60 cells; sheet "Under-represented in KO".
For B9, the “Fold Change” value is 0.2341 and the “Log (Fold Change)” value is reported as -0.6306.
For B10, in that order: 0.2386 and -0.6223.
